The record followed here is patent US20180334494A1 (published 2018).

What all share (assay): SPR
A general note: SPR reads the build-up and loss of mass on a sensor chip optically.

The target of experiment [1] is T1, C-terminal domain of Bundibugyo Ebola virus Nucleoprotein (NP^Ct).
In experiment [2] the target is T2, C-terminal domain of Zaire Ebola virus Nucleoprotein (NP^Ct) (UniProt P18272 641-739).
In experiment [3] the target is T3, C-terminal domain of Tai Forest Ebola virus Nucleoprotein (NP^Ct).
In experiment [4] the target is C-terminal domain of Reston Ebola virus Nucleoprotein (NP^Ct) (UniProt Q8JPY1 641-739).
For experiment [5], the target named is T2, C-terminal domain of Zaire Ebola virus …. This is another data set of the same source.
Experiment [6] has as its target T3, C-terminal domain of Tai Forest Ebola …. The source holds these as a separate data set.
The target of experiment [7] is T1, C-terminal domain of Bundibugyo Ebola …. This is another data set of the same source.
Experiment [8] has as its target C-terminal domain of Sudan Ebola virus Nucleoprotein (NP^Ct) (UniProt Q9QP77 641-738).

Read-outs that look alike come from different tables or passages of the source.

B1: Fab 6 (Fab, V domains shown)
VH: EVQLVESGGGLVQPGGSLRLSCAASGFNVYYYYIHWVRQAPGKGLEWVASISPYYGYTSSYADSVKGRFTISADTSKNTAYLQMNSLRAEDTAVYYCARWSYDQSMSYKSGMDYWGQGTLVTVSS
VL: DIQMTQSPSSLSASVGDRVTITCRASQSVSSAVAWYQQKPGKAPKLLIYSASSLYSGVPSRFSGSRSGTDFTLTISSLQPEDFATYYCQQYSYSLVTFGQGTKVEIKR
As for B1, the Kd in experiment [1] came to 3.95 nM; in experiment [2], 0.687 nM; in experiment [3] it was 4.68 nM.

B2: Fab 20 (Fab, V domains shown)
VH: EVQLVESGGGLVQPGGSLRLSCAASGFNISYSSIHWVRQAPGKGLEWVASIYSYSGYTSYADSVKGRFTISADTSKNTAYLQMNSLRAEDTAVYYCARSYWYHVGSWHYTGMDYWGQGTLVTVSS
VL: DIQMTQSPSSLSASVGDRVTITCRASQSVSSAVAWYQQKPGKAPKLLIYSASSLYSGVPSRFSGSRSGTDFTLTISSLQPEDFATYYCQQSSSSLITFGQGTKVEIKR
With B2, the Kd in experiment [4] came to 11.7 nM; in experiment [5] it was 4.14 nM; in experiment [6], 3.05 nM; in experiment [7] it was 16.6 nM; in experiment [8], 20.3 nM.

By Kd is commonly meant the free concentration of one partner at which half of the binding sites on the other are occupied at equilibrium, for simple one-to-one binding. Low values mean tighter binding, high ones weaker binding.
